Experimental data: paper PMC9262582

Molecular target: Rum pol (RumA′2B), His-tagged on RumB (integrative conjugative element R391)

S. aureus RecA (from UniProt A5ISG9 1-347) (natural protein)
primer extension (% PE) by Rum Mut-Sa transactivated with Sa RecA*: 4 % PE
